# Data as given in patent US11229679B2, “Compositions for treating heart disease by inhibiting the action of mAKAPβ” (Anchored RSK3 Inhibitors, LLC, priority 2013, dated 2022).
# Columns and labels:
# [1] = tested on: neonatal rat ventricular myocytes; experiment: Neonatal rat ventricular myocyte hypertrophy (cross-section area, ANF expression); format: cell-based; settings: for agonist-induced myocyte hypertrophy: BI-D1870 10 μmol/L, SL0101 50 μmol/L, PE, LIF or FBS, 2 days; for PE-induced hypertrophy: expressed in neonatal myocytes
# Description: Neonatal rat myocytes isolation and culture: 1-3 day old Sprague-Dawley rats were decapitated and the excised hearts placed in 1×ADS Buffer (116 mmol/L NaCl, 20 mmol/L HEPES, 1 mmol/L NaH2PO4, 5.5 mmol/L glucose, 5.4 mmol/L KCl, 0.8 mmol/L MgSO4, pH 7.35). The atria were carefully removed and the blood washed away. The ventricles were minced and incubated with 15 mL 1×ADS Buffer containing 3.3 mg type II collagenase (Worthington, 230 U/mg) and 9 mg Pancreatin (Sigma) at 37° C. while shaking at 80 RPM. After 15 minutes, the dissociated cardiac myocytes were separated by centrifugation at 50×g for 1 minute, resuspended in 4 mL horse serum and incubated 37° C. with occasional agitation. The steps for enzymatic digestion and isolation of myocytes were repeated 10-12 times to maximize yield. The myocytes were pooled and spun down again at 50×g for 2 minutes and resuspended in Maintenance Medium (DMEM:M199, 4:1) supplemented with 10% horse serum and 5% fetal bovine serum. To remove any contaminating fibroblasts, the cells were pre-plated for 1 hour before plating on gelatin-coated tissue culture plasticware. This procedure yields >90% pure cardiac myocytes. After 1 day in culture, the media was changed to maintenance medium containing 0.1 mmol/L bromodeoxyuridine to suppress fibroblast growth. Experiments were initiated 1 day after myocyte isolation. Adenoviral infection was performed by addition of adenovirus (multiplicity of infection=5-50) to the media. Plasmids and siRNA oligonucleotides were transfected using Transfast (Promega) and Dharmafect (Thermofisher), respectively, as recommended by the manufacturers using cells cultured in maintenance medium supplemented with 4% horse serum. Starting the day after gene transduction, the cells were treated for as long as 2 days, as indicated for each experiment. Immunocytochemistry: Cultured neonatal cardiomyocytes on plastic coverslips were fixed in 3.7% formaldehyde in PBS, permeabilized with 0.3% Triton X-100 in PBS, and blocked with PBS containing 0.2% BSA and 1% horse serum for 1 hour. The slides were then sequentially incubated for 1 hour with primary and Alexa fluorescent dye-conjugated specific-secondary antibodies (Invitrogen, 1:1000) diluted in blocking buffer. The slips were washed three times with blocking buffer. 1 μg/mL Hoechst 33258 was included in the last wash stop to label nuclei. Slides were sealed in SlowFade Gold antifade buffer (Invitrogen) for fluorescent microscopy. Wide-field images were acquired using a Leica DMI 6000 Microscope. Morphometry: Morphometric data was acquired using IPLab Software. […] For adult mouse cardiac myocytes, the maximum lengths perpendicular (width) or parallel (length) to the myofibrils were measured for >100 freshly dissociated myocytes per heart.
# [2] = tested on: Noonan syndrome mouse model (Raf1L613V knock-in); settings: Wu 2011; cited from earlier work
# NHE1 = settings: Cuello 2007; cited from earlier work
# RSK = RSK activation in neonatal rat ventricular myocytes (pan-RSK phospho-S218 Western blot); format: cell-based; settings: 10 μmol/L PE, 1 hour
# Text: RSK family members can be activated in most cell types by ERK, but not c-Jun N-terminal kinases or p38 (Anjum 2008). ERK phosphorylation is permissive for PDK1 phosphorylation of the RSK N-terminal kinase domain, such that PDK1 phosphorylation of RSK S^218 is indicative of full activation of the enzyme (FIG. 4A). […] The α-adrenergic stimulation with phenylephrine (PE) induced RSK phosphorylation 3-fold by both MEK1/2-dependent (that activates ERK1/2) and MEK5-dependent (that activates ERK5) mechanisms (FIG. 22).
# Immunoprecipitations: HEK293 and COS-7 cells were transfected with Lipofectamine 2000 (Invitrogen) or Polyethylenimine “Max” (Polysciences). Cells (including myocytes) were lysed in buffer (20 mmol/L HEPES, pH 7.4, 150 mmol/L NaCl, 5 mmol/L EDTA, 0.5% Triton, 50 mmol/L NaF, 1 mmol/L sodium orthovanadate, 1 mmol/L DTT, and protease inhibitors). After centrifugation at 10,000×g for 10 minutes at 4° C., the clarified extracts were used for immunoprecipitation using appropriate antibodies (10 μg purified antibody or 1-5 μL whole serum) and 20 μL protein G sepharose (Millipore, Fastflow) for 3 hours to overnight at 4° C. The beads were washed 3-5 times with lysis buffer, and the immunoprecipitated proteins were eluted with 1× Laemmli buffer for western blotting. […]
# [3] = tested on: HA-RSK3 fragments, HA-RSK2; experiment: Co-immunoprecipitation of tagged mAKAP and RSK proteins co-expressed in COS-7 cells; format: binding
# Description: (§1) Immunoprecipitations: HEK293 and COS-7 cells were transfected with Lipofectamine 2000 (Invitrogen) or Polyethylenimine “Max” (Polysciences). Cells (including myocytes) were lysed in buffer (20 mmol/L HEPES, pH 7.4, 150 mmol/L NaCl, 5 mmol/L EDTA, 0.5% Triton, 50 mmol/L NaF, 1 mmol/L sodium orthovanadate, 1 mmol/L DTT, and protease inhibitors). After centrifugation at 10,000×g for 10 minutes at 4° C., the clarified extracts were used for immunoprecipitation using appropriate antibodies (10 μg purified antibody or 1-5 μL whole serum) and 20 μL protein G sepharose (Millipore, Fastflow) for 3 hours to overnight at 4° C. The beads were washed 3-5 times with lysis buffer, and the immunoprecipitated proteins were eluted with 1× Laemmli buffer for western blotting. Western blots were developed using horseradish peroxidase-conjugated donkey secondary antibodies, Supersignal West Chemiluminescent Substrates (Thermo Scientific) and X-ray film or a Fujifilm LAS-3000 imaging system.
# RSK3 and mAKAPβ = experiment: Co-immunoprecipitation of endogenous RSK3 with mAKAPβ complexes from PE-treated myocytes; format: cell-based, rat; settings: expressed in neonatal myocytes
# Description: as §1
# RSK3 = target: T1, RSK3 (Homo sapiens, UniProt Q15349); experiment: Surface plasmon resonance of His-RSK3 binding to immobilized His-mAKAP 1286-1833
# T1 construct: bacterially expressed His-tagged mAKAP 1286 to 1833 and full-length RSK3 was analyzed by surface plasmon resonance; His; made in house; host or cells: bacteria (pET30 / pGEX-4T vectors)
# T1 sequence (Q15349 whole entry): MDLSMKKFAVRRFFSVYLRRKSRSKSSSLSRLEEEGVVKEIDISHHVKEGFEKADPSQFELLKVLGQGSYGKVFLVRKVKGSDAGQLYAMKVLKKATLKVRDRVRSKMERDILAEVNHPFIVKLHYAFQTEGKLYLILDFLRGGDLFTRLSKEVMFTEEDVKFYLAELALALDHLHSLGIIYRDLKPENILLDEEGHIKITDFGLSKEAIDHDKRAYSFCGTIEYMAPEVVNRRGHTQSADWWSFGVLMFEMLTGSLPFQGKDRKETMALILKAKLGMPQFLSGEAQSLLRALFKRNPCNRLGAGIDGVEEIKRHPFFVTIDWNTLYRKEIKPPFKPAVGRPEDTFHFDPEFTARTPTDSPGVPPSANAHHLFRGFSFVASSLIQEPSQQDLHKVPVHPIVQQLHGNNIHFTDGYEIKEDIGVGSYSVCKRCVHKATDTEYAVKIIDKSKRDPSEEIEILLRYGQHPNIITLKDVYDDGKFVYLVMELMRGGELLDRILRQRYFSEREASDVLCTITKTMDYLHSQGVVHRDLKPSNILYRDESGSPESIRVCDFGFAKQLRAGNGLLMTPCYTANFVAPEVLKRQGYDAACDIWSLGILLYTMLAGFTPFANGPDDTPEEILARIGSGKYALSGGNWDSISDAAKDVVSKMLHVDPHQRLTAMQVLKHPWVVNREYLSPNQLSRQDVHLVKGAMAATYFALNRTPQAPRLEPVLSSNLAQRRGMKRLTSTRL
# Description: Surface Plasmon Resonance: SPR analysis was performed using a BIAcore T100. 200 resonance units His-tagged mAKAP 1286-1833 were covalently immobilized using NHS (N-hydroxysuccinamide) and EDC [1-ethyl-3-(3-(dimethylamino)propyl)carbodiimide] (Biacore amine coupling kit) to the surface of a sensor chip (BIAcore type CM5). His-RSK3 analytes (6.25-200 nmol/L) in HBS buffer (10 mmol/L Hepes, pH 7.4, 150 mmol/L NaCl, and 0.005% Surfactant P20) were injected at a flow rate of 30 μL/min for 5 minutes, followed by buffer alone for another 5 minutes. Sensorgrams were processed by BIAcore T100 evaluation software.
# For phosphorylated His-RSK3, 20 μg His-RSK3 was phosphorylated with 2 μg ERK2 (Millipore, 14-550) and/or PDK1 (Sigma, P7498) for 5 hours in kinase buffer (20 mmol/L MOPS, pH 7.2, 25 mmol/L β-glycerol phosphate, 5 mmol/L EGTA, 1 mmol/L sodium orthovanadate, 1 mmol/L DTT) with 0.5 mmol/L MgATP. Phospho-His-RSK3 was purified using His-binding beads and concentrated before use.
molecule,measurement,setting,value
"CC(C)CCN1c2nc(Nc3cc(F)c(O)c(F)c3)ncc2N(C)C(=O)C1C (stereo not drawn) [BI-D1870, reference compound]",agonist-induced myocyte hypertrophy,[1],inhibited
O=C(NOC[C@H](O)CO)c1ccc(F)c(F)c1Nc1ccc(I)cc1F [PD0325901],progression of cardiac hypertrophy cardiomyopathy and other Noonan characteristics,[2],attenuated progression
"CC(=O)OC1C(C)OC(Oc2c(-c3ccc(O)cc3)oc3cc(O)cc(O)c3c2=O)C(O)C1OC(C)=O (stereo not drawn) [SL0101, reference compound]",agonist-induced myocyte hypertrophy,[1],inhibited
Cc1ccc(-c2c(C(=O)CF)n(CCCO)c3ncnc(N)c23)cc1 [fmk],α-adrenergic-induced NHE1 phosphorylation,NHE1,blocked
CNC[C@H](O)c1cccc(O)c1 [phenylephrine],induction of RSK phosphorylation,RSK,3 fold
"mAKAP RBD: main RSK3 binding domain of mAKAP, fragment encompassing residues 1694 to 1833; competing binding peptide (protein, left off: small tags and cut ends) ELSLCSEDIVLHKNKIPESNASFRKRLNRSVADESDVNVSMIVNVSCTSACTDDEDDSDLLSSSTLTLTEEELCLKDEDDDSSIATDDEIYEESNLMSGLDYIKNELQTWIRPKLSLTREKKRSGVTDEIKVNKDGGGNE",PE-induced hypertrophy,[1],inhibited
same,binding to N-terminally truncated RSK3 mutant (HA-RSK3 DN30) or HA-tagged full-length RSK2,[3],not
"green fluorescent protein-mAKAP RBD fusion protein: myc-GFP-mAKAP RSK binding domain (RBD) fusion protein; mAKAP 1694-1833 (protein, left off: small tags and cut ends; large carriers) ELSLCSEDIVLHKNKIPESNASFRKRLNRSVADESDVNVSMIVNVSCTSACTDDEDDSDLLSSSTLTLTEEELCLKDEDDDSSIATDDEIYEESNLMSGLDYIKNELQTWIRPKLSLTREKKRSGVTDEIKVNKDGGGNE",PE-induced hypertrophy,[1],markedly inhibited
same,association of endogenous RSK3 and mAKAPβ,RSK3 and mAKAPβ,competed
"mAKAP 1286 to 1833: bacterially expressed His-tagged mAKAP fragment, residues 1286 to 1833 (protein, left off: small tags and cut ends) VYSLHNVELHEDSHTPFLKSSPKFTGTTQPTVLTKSLSKDSSFSSTKSLPDLLGGSGLVRPYSCHSGDLSQNSGSESGIVSEGDNEMPTNSDMSLFSMVDGSPSNPETEHPDPQMGDAANVLEQKFKDNGESIKLSSVSRASVSPVGCVNGKAGDLNSVTKHTADCLGEELQGKHDVFTFYDYSYLQGSKLKLPMIMKQPQSEKAHVEDPLLGGFYFDKKSCKAKHQASESQPDAPPHERILASAPHEMGRSAYKSSDIEKTFTGIQSARQLSLLSRSSSVESLSPGGDLFGLGIFKNGSDSLQRSTSLESWLTSYKSNEDLFSCHSSGDISVSSGSVGELSKRTLDLLNRLENIQSPSEQKIKRSVSDMTLQSSSQKMPFAGQMSLDVASSINEDSPASLTELSSSDELSLCSEDIVLHKNKIPESNASFRKRLNRSVADESDVNVSMIVNVSCTSACTDDEDDSDLLSSSTLTLTEEELCLKDEDDDSSIATDDEIYEESNLMSGLDYIKNELQTWIRPKLSLTREKKRSGVTDEIKVNKDGGGNE",decrease of RSK3 binding affinity for mAKAP,RSK3; RSK3 previously phosphorylated by ERK,5 fold
same,decrease of RSK3 binding affinity for mAKAP,RSK3; RSK3 previously phosphorylated by both ERK and PDK1,8 fold
same,KD of binding to full-length RSK3,RSK3; unphosphorylated His-RSK3,nanomolar
